Assay results taken from patent US20240011101A1, “METHOD OF DETERMINING RESISTANCE TO CHECKPOINT INHIBITOR THERAPIES” (Shattuck Labs, Inc., priority 2020, published 2024).

What was measured:
wild type CT26 cells = experiment: RNA-seq gene expression (TPM) of wild type CT26 cells cultured with or without IFNγ; assay type: cell-based; conditions: 20 ng/mL mouse IFNγ, 24 hours, vs without IFNγ
Protocol: (§1) Three distinct vials of parental CT26 cells (ATCC; “experimental replicates”), two independently isolated tumors from “2nd round” mice, four independently isolated tumors from “4th round” mice (both “biological replicates”) were cultured with or without 20 ng/mL of mouse IFNγ (Biolegend) for 24 hours at […]. The following day, RNA was isolated from cells using Qiagen RNeasy reagents according to manufacturer's instructions, including QIASHREDDER homogenization and on-column DNaseI digestion. Isolated RNA was subjected to RNA-seq and data analysis. Briefly, sequencing libraries were generated and sequenced on an ILLUMINA HISEQ (2×150 paired end reads), targeting >20×10^6 reads per sample. Sequences were trimmed using TRIMMOMATIC v.0.36 and mapped to the Mus musculus GRCm38 reference genome using the STAR ALIGNER v.2.5.2b. Unique gene hit counts were calculated by using FEATURECOUNTS from the SUBREAD package v.1.5.2. Only unique reads that fell within exon regions were counted. Differential gene expression was determined using DESeq2, and the Wald test was used to generate p-values and log 2 fold changes; with log 2 fold change >1 and adjusted p-values <0.05 as cutoffs for significance.
Next, the effect of IFNγ on the expression of certain genes that are differentially expressed in the 4th generation anti-PD-1 resistant cells compared to the wild type CT26 cells was studied. Briefly, the parental CT26 cells, second generation anti-PD-1 resistant cells and 4th generation anti-PD-1 resistant cells were cultured with or without 20 ng/mL of mouse IFNγ (Biolegend) for 24 hours at 37° C./[…]. The following day, RNA was isolated from cells using Qiagen RNeasy reagents according to manufacturer's instructions, including QIASHREDDER homogenization and on-column DNaseI digestion. Isolated RNA was subjected to RNA-seq and data analysis. Briefly, sequencing libraries were generated and sequenced on an ILLUMINA HISEQ (2×150 paired end reads), targeting >20×10^6 reads per sample. Sequences were trimmed using TRIMMOMATIC v.0.36 and mapped to the Mus musculus GRCm38 reference genome using the STAR ALIGNER v.2.5.2b. Unique gene hit counts were calculated by using FEATURECOUNTS from the SUBREAD package v.1.5.2. Only unique reads that fell within exon regions were counted. Differential gene expression was determined using DESeq2, and the Wald test was used to generate p-values and log 2 fold changes; with log 2 fold change >1 and adjusted p-values <0.05 as cutoffs for significance.

[1] = tested on: 4th generation anti-PD-1 resistant cells; experiment: RNA-seq gene expression (TPM) of 4th generation anti-PD-1 resistant CT26 cells cultured with or without IFNγ; assay type: cell-based, Mus musculus
Protocol: as §1
Next the transcriptomic profile of the 2nd and 4th generation anti-PD-1 resistant cell lines was studied by comparison with each other and with an anti-PD-1 primarily resistant cell line. The B16.F10 murine melanoma tumor cell line was used as a model of anti-PD-1 “primary resistance,” as these tumors are not responsive to anti-PD-1 therapy. Three distinct vials of parental CT26 cells (ATCC; “experimental replicates”), two independently isolated tumors from “2nd round” mice, four independently isolated tumors from “4th round” mice (both “biological replicates”), and two distinct vials of parental B16.F10 cells (ATCC; “experimental replicates were cultured with or without 20 ng/mL of mouse IFNγ (Biolegend) for 24 hours at 37° C./5% CO2 to assess in vitro responsiveness. This mimics how tumor cells respond in vivo, as immune cell infiltrate and secrete effector cytokines like IFNγ. The following day, RNA was isolated from cells using Qiagen RNeasy reagents according to manufacturers instructions, including QIASHREDDER homogenization and on-column DNaseI digestion. Isolated RNA was subjected to RNA-seq and data analysis. Briefly, sequencing libraries were generated and sequenced on an ILLUMINA HISEQ (2×150 paired end reads), targeting >20×10^6 reads per sample. Sequences were trimmed using TRIMMOMATIC v.0.36 and mapped to the Mus musculus GRCm38 reference genome using the STAR ALIGNER v.2.5.2b. Unique gene hit counts were calculated by using FEATURECOUNTS from the SUBREAD package v.1.5.2. Only unique reads that fell within exon regions were counted. Differential gene expression was determined using DESeq2, and the Wald test was used to generate p-values and log 2 fold changes; with log 2 fold change >1 and adjusted p-values <0.05 as cutoffs for significance. The DEGs were identified between untreated and IFNγ treated parental CT26. As shown in FIG. 4A (Left Panel), Log 2 fold-change was plotted in the heatmap and genes are hierarchical clustered based on parental CT26. Of these, 338 genes had usable data from the other datasets; and those values are shown in the other columns (FIG. 4A (Left Panel)). Genes separated into 3 major clusters (FIG. 4A (Left Panel)). Associated genes were input into PANTHER to identify pathways associated with the dysregulated genes and the GO pathways associated with the DEGs were identified. As shown in FIG. 4A (Right Panel), the upregulation of expression of the genes associated with following GO pathways was enriched in 2nd generation cells and 4th generation cells compared to both parental CT26 cells and B16.F10 cells: L-phenyl alanine catabolic process, phospholipid efflux, tyrosine catabolic process, positive regulation of transcription from RNA polymerase II promoter in response to acidic pH, and drug export. […]

B1: IFNγ: mouse IFNγ (Biolegend), cytokine added to cell cultures at 20 ng/mL for 24 hours (protein, UniProt P01580 23-155, looked up)
Interferon gamma: HGTVIESLESLNNYFNSSGIDVEEKSLFLDIWRNWQKDGDMKILQSQIISFYLRLFEVLKDNQAISNNISVIESHLITTFFSNSKAKKDAFMSIAKFEVNNPQVQRQAFNELIRVVHQLLPESSLRKRKRSRC
Q: How did the “expression of Cd274 (PD-L1)” value (wild type CT26 cells; FIG. 5A) turn out when B1 was run?
A: increased

Q: And the “expression of B2M” value (wild type CT26 cells; FIG. 5B)?
A: increased

Q: And the “expression of Trim7” value (wild type CT26 cells; FIG. 5C)?
A: increased

Q: What about the “expression of Lrg1” value (wild type CT26 cells; FIG. 5D) of the same molecule?
A: increased

Q: What about the “expression of Stat1” value (wild type CT26 cells; FIG. 7A) of the same molecule?
A: increased

Q: And the “expression of Stat2” value (wild type CT26 cells; FIG. 7B)?
A: increased

Q: What about the “expression of Irf1” value (wild type CT26 cells; FIG. 7C) of the same molecule?
A: increased

Q: And the “expression of Tap1” value (wild type CT26 cells; FIG. 7D)?
A: increased

Q: What about the “expression of Ccl5 (RANTES)” value (wild type CT26 cells; FIG. 9A) of the same molecule?
A: increased

Q: What about the “expression of Cxcl10 (IP-10)” value (wild type CT26 cells; FIG. 9B) of the same molecule?
A: increased

Q: What about the “expression of Ifnb1” value (wild type CT26 cells; FIG. 9C) of the same molecule?
A: increased

Q: And the “expression of type I and type II interferon genes (baseline hyperactivated)” value ([1]; CT26 anti-PD-1 resistant cells challenged with IFNγ (20 ng/mL, 24 hours), FIG. 4B)?
A: downregulate

Q: And the “expression of Trim7” value ([1]; in response to IFNγ (20 ng/mL, 24 hours), FIG. 5C)?
A: overexpressed

Q: And the “expression of Lrg1” value ([1]; in response to IFNγ (20 ng/mL, 24 hours), FIG. 5D)?
A: overexpressed

Q: And the “expression of CD274” value ([1]; in the presence of IFNγ (20 ng/mL, 24 hours), FIG. 5A)?
A: repressed

Q: And the “expression of B2m” value ([1]; in the presence of IFNγ (20 ng/mL, 24 hours), FIG. 5B)?
A: repressed

Q: And the “expression of Stat1” value ([1]; in the presence of IFNγ (20 ng/mL, 24 hours), FIG. 7A)?
A: repressed

Q: What about the “expression of Stat2” value ([1]; in the presence of IFNγ (20 ng/mL, 24 hours), FIG. 7B) of the same molecule?
A: repressed

Q: What about the “expression of Irf1” value ([1]; in the presence of IFNγ (20 ng/mL, 24 hours), FIG. 7C) of the same molecule?
A: repressed

Q: What about the “expression of Tap1” value ([1]; in the presence of IFNγ (20 ng/mL, 24 hours), FIG. 7D) of the same molecule?
A: repressed

Q: What about the “expression of Ccl5 (RANTES)” value ([1]; in the presence of IFNγ (20 ng/mL, 24 hours), FIG. 9A) of the same molecule?
A: repressed

Q: What about the “expression of Cxcl10 (IP-10)” value ([1]; in the presence of IFNγ (20 ng/mL, 24 hours), FIG. 9B) of the same molecule?
A: repressed

Q: What about the “expression of Ifnb1” value ([1]; in the presence of IFNγ (20 ng/mL, 24 hours), FIG. 9C) of the same molecule?
A: repressed
